Literature values as cited in patent US20230279132A1, “TREATMENT OF B CELL MALIGNANCIES” (NOVARTIS AG, priority 2020, published 2023).

System: DLBCL
Settings: plus lenalidomide; relapsed or refractory DLBCL ineligible for transplants

B1: tafasitamab-cxix: FDA-approved with lenalidomide for relapsed or refractory DLBCL (antibody, chains of the INN, looked up)
heavy: EVQLVESGGGLVKPGGSLKLSCAASGYTFTSYVMHWVRQAPGKGLEWIGYINPYNDGTKYNEKFQGRVTISSDKSISTAYMELSSLRSEDTAMYYCARGTYYYGTRVFDYWGQGTLVTVSSASTKGPSVFPLAPSSKSTSGGTAALGCLVKDYFPEPVTVSWNSGALTSGVHTFPAVLQSSGLYSLSSVVTVPSSSLGTQTYICNVNHKPSNTKVDKKVEPKSCDKTHTCPPCPAPELLGGPDVFLFPPKPKDTLMISRTPEVTCVVVDVSHEDPEVQFNWYVDGVEVHNAKTKPREEQFNSTFRVVSVLTVVHQDWLNGKEYKCKVSNKALPAPEEKTISKTKGQPREPQVYTLPPSREEMTKNQVSLTCLVKGFYPSDIAVEWESNGQPENNYKTTPPMLDSDGSFFLYSKLTVDKSRWQQGNVFSCSVMHEALHNHYTQKSLSLSPG
light: DIVMTQSPATLSLSPGERATLSCRSSKSLQNVNGNTYLYWFQQKPGQSPQLLIYRMSNLNSGVPDRFSGSGSGTEFTLTISSLEPEDFAVYYCMQHLEYPITFGAGTKLEIKRTVAAPSVFIFPPSDEQLKSGTASVVCLLNNFYPREAKVQWKVDNALQSGNSQESVTEQDSKDSTYSLSSTLTLSKADYEKHKVYACEVTHQGLSSPVTKSFNRGEC
Which CR does the source give for B1 here?
Its CR is 37%.

And the ORR?
The ORR was 55%.
